B1: human β4GalT7, residues 81-327 (enzyme, UniProt Q9UBV7 81-327, looked up)
chain: PEHWEEDASWGPHRLAVLVPFRERFEELLVFVPHMRRFLSRKKIRHHIYVLNQVDHFRFNRAALINVGFLESSNSTDYIAMHDVDLLPLNEELDYGFPEAGPFHVASPELHPLYHYKTYVGGILLLSKQHYRLCNGMSNRFWGWGREDDEFYRRIKGAGLQLFRPSGITTGYKTFRHLHDPAWRKRDQKRIAAQKQEQFKVDREGGLNTVKYHVASRTALSVGGAPCTVLNIMLDCDKTATPWCTFS
notes: human beta-1,4-galactosyltransferase 7, UniProt Q9UBV7, residues 81-327, without the N-terminal transmembrane anchoring helix; Made from the pETM30 vector; The 6xHis-GST tag was removed by TEV protease; The printed monomer mass is 29 kDa; also called β4GalT7_81-327; source: E. coli Rosetta(DE3)pLysS, purified (IMAC, TEV cleavage, second IMAC, Superdex 200); not shown: 6xHistidine, N-terminal, …
B2: SUMO-β3GalT6 fusion protein (human β3GalT6 residues 53-329) (enzyme, UniProt Q96L58 53-329, looked up)
chain: ARAAAFLAVLVASAPRAAERRSVIRSTWLARRGAPGDVWARFAVGTAGLGAEERRALEREQARHGDLLLLPALRDAYENLTAKVLAMLAWLDEHVAFEFVLKADDDSFARLDALLAELRAREPARRRRLYWGFFSGRGRVKPGGRWREAAWQLCDYYLPYALGGGYVLSADLVHYLRLSRDYLRAWHSEDVSLGAWLAPVDVQREHDPRFDTEYRSRGCSNQYLVTHKQSLEDMLEKHATLAREGRLCKREVQLRLSYVYDWSAPPSQCCQRREGIP
notes: human beta-1,3-galactosyltransferase 6, UniProt Q96L58, residues 53-329, without the N-terminal transmembrane anchoring helix; The fusion was not cleaved; The printed monomer mass is 45 kDa; also called β3GalT6_53-329; source: FreeStyle 293-F cells, transfected, culture supernatant, purified (one-step IMAC, dialysis); not shown: SUMO, N-terminal, kept; 6xHistidine, N-terminal, kept
B3: human GlcAT-1, residues 76-335 (enzyme, UniProt O94766 76-335, looked up)
chain: TIYVVTPTYARLVQKAELVRLSQTLSLVPRLHWLLVEDAEGPTPLVSGLLAASGLLFTHLVVLTPKAQRLREGEPGWVHPRGVEQRNKALDWLRGRGGAVGGEKDPPPPGTQGVVYFADDDNTYSRELFEEMRWTRGVSVWPVGLVGGLRFEGPQVQDGRVVGFHTAWEPSRPFPVDMAGFAVALPLLLDKPNAQFDSTAPRGHLESSLLSHLVDPKDLEPRAANCTRVLVWHTRTEKPKMKQEEQLQRQGRGSDPAIEV
notes: human glucuronyltransferase GlcAT-1, UniProt O94766, residues 76-335, without the N-terminal transmembrane anchoring helix; Made from the pETM30 vector; The 6xHis-GST tag was removed by TEV protease; The printed monomer mass is 29 kDa; also called GlcAT-1_76-335; source: E. coli BL21(DE3)pLysS, purified (IMAC, TEV cleavage, flow-through of the second IMAC); not shown: 6xHistidine, N-terminal, …

Biological target: the molecule itself
Assay: mass photometry; Refeyn OneMP; final protein concentration between 50 nM and 125 nM; XylT1 and SUMO-β3GalT6 in Tris buffer A (50 mM Tris pH 7.4, 250 mM NaCl) with 5% glycerol, β4GalT7 in S200 buffer (25 mM MES pH 6.5, 200 mM NaCl, 5% glycerol), GlcAT-1 in HEPES buffer; duplicates

Stoichiometry N, 2:
B1
B2
B3

From PMC11031135, “Chemo-enzymatic synthesis of tetrasaccharide linker peptides to study the divergent step in glycosaminoglycan biosynthesis” (Glycobiology, 2024)
